Measured values from patent US20170052184A1.
Like-named read-outs stand apart in the source and are kept apart here.

How the values were obtained:
[1] = target: C113T109N biotin labeled HCV core peptide (hepatitis C virus); assay: EIA; Ab 3.906 ng/mL captured on anti-mouse Fc; bt-peptide 500 ng/mL
[2] = target: Mut1T110N biotin labeled HCV core peptide (hepatitis C virus); assay: as above
[3] = target: Mut6T110S biotin labeled HCV core peptide (hepatitis C virus); assay: as above
[4] = target: 92-133 biotin labeled HCV core peptide (hepatitis C virus) (UniProt P26664); assay: as above
[5] = target: C113T109N biotin labeled HCV core peptide (hepatitis C virus)
[6] = target: Mut1T110N biotin labeled HCV core peptide (hepatitis C virus)
[7] = target: Mut6T110S biotin labeled HCV core peptide (hepatitis C virus)
[8] = target: 92-133 biotin labeled HCV core peptide (hepatitis C virus) (UniProt P26664)
[9] = target: C113T109N biotin labeled HCV core peptide (hepatitis C virus); assay: EIA; Ab 62.5 ng/mL captured on anti-mouse Fc; bt-peptide 500 ng/mL
[10] = target: Mut1T110N biotin labeled HCV core peptide (hepatitis C virus); assay: as above
[11] = target: Mut6T110S biotin labeled HCV core peptide (hepatitis C virus); assay: as above
[12] = target: 92-133 biotin labeled HCV core peptide (hepatitis C virus) (UniProt P26664); assay: as above
[13] = target: C113T109N biotin labeled HCV core peptide (hepatitis C virus); assay: EIA; Ab 250 ng/mL captured on anti-mouse Fc; bt-peptide 500 ng/mL
[14] = target: Mut1T110N biotin labeled HCV core peptide (hepatitis C virus); assay: as above
[15] = target: Mut6T110S biotin labeled HCV core peptide (hepatitis C virus); assay: as above
[16] = target: 92-133 biotin labeled HCV core peptide (hepatitis C virus) (UniProt P26664); assay: as above
[17] = target: C113T109N biotin labeled HCV core peptide (hepatitis C virus); assay: EIA; Ab 0.977 ng/mL captured on anti-mouse Fc; bt-peptide 500 ng/mL
[18] = target: Mut1T110N biotin labeled HCV core peptide (hepatitis C virus); assay: as above
[19] = target: Mut6T110S biotin labeled HCV core peptide (hepatitis C virus); assay: as above
[20] = target: 92-133 biotin labeled HCV core peptide (hepatitis C virus) (UniProt P26664); assay: as above

## HCV C11-3 monoclonal antibody
[1]
  signal at 492 nm: 0.0833 OD 492 nm
[2]
  signal at 492 nm: 0.079 OD 492 nm
[3]
  signal at 492 nm: 0.227 OD 492 nm
[4]
  signal at 492 nm: 0.183 OD 492 nm
[5]
  signal at 492 nm: 0.116 OD 492 nm
[6]
  signal at 492 nm: 0.11 OD 492 nm
[7]
  signal at 492 nm: 0.807 OD 492 nm
[8]
  signal at 492 nm: 1.01 OD 492 nm
[9]
  signal at 492 nm: 0.202 OD 492 nm
[10]
  signal at 492 nm: 0.155 OD 492 nm
[11]
  signal at 492 nm: 2.11 OD 492 nm
[12]
  signal at 492 nm: 1.92 OD 492 nm
[13]
  signal at 492 nm: 0.0963 OD 492 nm
[14]
  signal at 492 nm: 0.0857 OD 492 nm
[15]
  signal at 492 nm: 1.83 OD 492 nm
[16]
  signal at 492 nm: 1.68 OD 492 nm
[17]
  signal at 492 nm: 0.104 OD 492 nm
[18]
  signal at 492 nm: 0.0755 OD 492 nm
[19]
  signal at 492 nm: 0.101 OD 492 nm
[20]
  signal at 492 nm: 0.116 OD 492 nm
